From the DeepSol protein solubility set come the findings set out here.

The nature of the data set: soluble on expression in E. coli; label from the status in PepcDB or PDB records.
For “YWASSQLTQLFLSTDLESLEPTCLSKDTIYQWKVVQTFGDRLRLRQRVLATAIVLLRRYMLKKNEEKGFSLEALVATCIYLSCKVEECPVHIRTICNEANDLWSLKVKLSRSNISEIEFEIISVLDAFLIVHHPYTSLEQAFHDGIINQKQLEFAWSIVNDSYASSLCLMAHPHQLAYAALLISCCNDENTIPKLLDLIKSTDAFKVILCVQRIISIYYFEDIEAAALEHHHHHH”, the “soluble on expression in E. coli” value is recorded as “soluble”. On to “SKFDKLNKAYEQIKSDYYQKTDDDKLVDGAIKGMIQSLDDPYSTYMDQEQAKSFDETISASFEGIGAQVEEKDGEILIVSPIKGSPAEKAGIKPRDQIIKVNGKSVKGMNVNEAVALIRGKKGTKVKLELNRAGVGNIDLSIKRDTIPVETVYSEMKDNNIGEIQITSFSETTAKELTDAIDSLEKKGAKGYILDLRGNPGGLMEQAITMSNLFIDKGKNIMQVEYKNGSKEVMKAEKERKVTKPTVVLVNDGTASAAEIMAAALHESSNVPLIGETTFGKGTVQTAKEYDDGSTVKLTVAKWLTADGEWIHKKGIKPQVKAELPDYAKLPYLDADKTYKSGDTGTNVKVAQKMLKALGYKVKVNSMYDQDFVSVVKQFQKKEKLNETGILTGDTTTKLMIELQKKLSDNDTQMEKAIETLKK”, for which the “soluble on expression in E. coli” value is “not soluble”. The value for “KSIYIQSPYFIPDQAFLDSIKIAALGGVDVNIMIPNKPDHPFVFWATLKNAASLLDAGVKVFHYDNGFLHSKTLVIDDEIASVGTANMDHRSFTLNFEVNAFIYDQQIAKKLKQAFIDDLAVSSELTKARYAKR” was “not soluble”; that for “MSLEVVLWDFDGVIFDSMHLKNEGFRALFQKHGNKNQESLKQFEVYHYQSGGISRNEKIQYFYNEILKTPIAQEEVDALALEFGTIIEQKLFDREHLNSEVMAFIDKHYKNHVFHIASAALHSELQVLCEFLGIIKYFKSVEGSPPNKPKIIANIIQKYAYNPGRMLMIGDSVNDYESAQANEVAFLGYNSKVLKNLVGQNGYQGKYLESFKGFDLQNFIKEGHHHHHH” was “soluble”.

In the case of “MGSDKIHHHHHHMKIAISGKGGVGKTTLAATLAYLFARDGYRVTAIDCDADINLPSALGVKEKPKPLSELHEIIEKRVVGPMGTYKLNPKVDDVFEEYSVYNEDGVRVLVLGTIEKGGEGCFCPENAFLRAILRHAIFKREDVLILDMEAGIEHLGRGTARGVDLLIAVVEPGTRAVETLERIEKLGRDIGIERIAVVVNKFIESERARELISGIKYPILGVIHYDQCFVRADLENVPPYTVCDLKPFEEIKRRIEEFVQ”, the “soluble on expression in E. coli” value was “not soluble”. Take “MAKARRRRVRDTWKEKKWYVIKSPKLFGENEIGTTPSRDPDFLLKRRVEATMRELTGDFSKQYVKLKFQIDSVAGSEATTRFIGHQVTTDYVRSMIRRGTSRVDAPVIVETKDGYKLKVHPLAITIRRAKSSQQKYMRQSIEEHLREIASEKTFEELVEGIVTGKIASEIYHQAKKIYPLKRVEIIKSRVLEEPALEHHHHHH”: the “soluble on expression in E. coli” value is reported as “soluble”. In the case of “MKSTFSVLFFVKKDKQKINGSYPIFVRITIDGVASRFNSKLDVQPKLWDGKAGKAAGRSAEATRINRLLDDINASLNTIYHELQRRDNYVTAEKVKNEFLGHSENHDTILNLFQKHNDDVKQLVGISKTIATYRKYEVTRRHLAEFIQSKYNLSDISIKEITPMFITDFELYLRTTCKCGYNTTAKFMQFFKRIILIARNNGILIGDPFANYKIRLEKVDRGYLTEDEIKIILKKKMVSERLEQVRDVFIFSCFSGLAYVDVANLKEDNIRKSFDGNLWIITKRQKTNTDVNVPLLDIPKMILEKYKGKLPNGKVLPIISNQK” it was “not soluble”; in that of “GVWRQYASRALQELGAGKRAIHDVADLTRGSLRIAVTPTFTSYFIGPLMADFYARYPSITLQLQEMSQEKIEDMLCRDELDVGIAFAPVHSPELEAIPLLTESLALVVAQHHPLAVHEQVALSRLHDEKLVLLSAEFATREQIDHYCEKAGLHPQVVIEANSISAVLELIRRTSLSTLLPAAIATQHDGLKAISLAPPLLERTAVLLRRKNSWQTAAAKAFLHMALDKCAVVGGNESR”, “soluble”.

For “ADGQQGAPLNSPNTYDVTTWRIKAHPEVTAQSDIGAVINDIIADIKQRQTSPDARPGAAIIIPPGDYDLHTQVVVDVSYLTIAGFGHGFFSRSILDNSNPTGWQNLQPGASHIRVLTSPSAPQAFLVKRAGDPRLSGIVFRDFCLDGVGFTPGKNSYHNGKTGIEVASDNDSFHITGMGFVYLEHALIVRGADALRVNDNMIAECGNCVELTGAGQATIVSGNHMGAGPDGVTLLAENHEGLLVTGNNLFPRGRSLIEFTGCNRCSVTSNRLQGFYPGMLRLLNGCKENLITANHIRRTNEGYPPFIGRGNGLDDLYGVVHIAGDNNLISDNLFAYNVPPANIAPAGAQPTQILIAGGDANVVALNHVVSDVASQHVVLDASTTHSKVLDSGTASQITSYSSDTAIRPTP”, the “soluble on expression in E. coli” value is on record as “soluble”. In the case of “MSLRSTKTIHVISCHAEGEVGDVIVGGVAPPPGETLWEQRSFIARDQTLRNFVLNEPRGGVFRHVNLLVPPRHPEADAAFIIMEPEDTPPMSGSNSICVSTVLLDGGIVPMIEPITEMVLEAPGGLVRVKAECRNGKAERIFVQNVTSFADKLSVPLDVEGIGTLTVDTAYGGDSFVVVDAEALGFAIVEDEAKDIARLGVRITNAANEQLGFSHPENPDWNHISFCAFCGPLSQTPTGLTGRSAVAIQPGKVDRSPTGTAVSARMALMAARGQMTIGDTFEAVSIIGSSFTGRIVSQQMAGDRPGIVPEISGRGWITGIHQHMLDPSDPWPGGYKLSDTWGAEGHHHHHH” it was “soluble”; in that of “MKETDLRVIKTKKALSSSLLQLLEQQLFQTITVNQICDNALVHRTTFYKHFYDKYDLLEYLFNQLTKDYFARDISDRLNHPFQTMSDTINNKEDLREIAEFQEEDAEFNKVLKNVCIKIMHNDIKNNRDRIDIDSDIPDNLIFYIYDSLIEGFIHWIKDEKIDWPGEDIDNIFHRLINIKIK”, “soluble”. The value for “AIAAAPIESLLNEICESEDPIEELKSLRTAVLATPVSGLRPAVSGARLEIIFSLLNTNDKEQIEVCVEILSRVLQALEPVQLAQNYRTALQSGLNHPDDSVKVLTLTQIGRVAGHTEGVTQMLNNVEILHDVIQCISVERIAVAKEAIAALSKLSNTKAGLDALFRSDLLNKLKDVMLTSDIIRYRVYELIVEVSTVSPVSLGYCANSGLISQMLEELTGDDVLVRATAIEMVTNLAQSQHGRQYLAQQGIMDKISSVQKIFGAHNYLKLKTYLNEGSYYVTAVSAVTTEGAD” was “soluble”; that for “MKQLSVSLAILCAVATSEAFAADELQQRAQGLFKPVPAKAPTLKGNPASPVKVELGKMLYFDPRLSASHLISCNTCHNVGLGGGDLQATSTGHGWQKGPRNAPTVLNSVFNTAQFWDGRAKDLAEQAKGPVQASVEMNNTPDQVVKTLNSIPDYVALFKKAFPGEKDPVTFDNMAKAIEVFEATLITPDSPFDQYLKGKKKALDGKQTAGLKLFLDKGCVACHGGLNLGGTGYFPFGVVEKPAENILPLGDKGRFAVTNTAKDEYVFRAPSLRNVAITYPYFHSGVVWSLKEAVAVMGSAQFGIKLSDDESEAIAAFLGSLTGKQPKVVYPIMPASTDATPRPRL” was “soluble”. In the case of “MAHHHHHHMTAPITGPMLLGAASVDVLRSMLTLDPFQCLVAQRLCEELSCQRFPKVTLLIFKSMPDPRLLQLRSSVGEEVTVTVSRLNDLRCKFTLGDKANYEHLYNMRTPAKPRTVCTFDIVLPTSRLTGLSRCIDHLIAAAERMVMPRITVEALCCTEQDERRKIVREEKDHWDFLFHGLRVGSFITVLRRLPSITAMHAPPIPHDYTFSAALSNPGFVLPSHYCGRLATVPTGAKGVSTPFIAIAEPAIPTGAKVSIRCQLIRGNQGQILGGGYYFGVCTPSFHWKHKDLNVHTGEVWALHDMDDSPWRLRHLRPDATFPVAAEPRCIIVSGDIIRLYIDRTARVMHAFRTPVNGDEIPLGLHL” it was “not soluble”; in that of “MGSDKIHHHHHHMARVAINGFGRIGRLVYRIIYERKNPDIEVVAINDLTDTKTLAHLLKYDSVHKKFPGKVEYTENSLIVDGKEIKVFAEPDPSKLPWKDLGVDFVIESTGVFRNREKAELHLQAGAKKVIITAPAKGEDITVVIGCNEDQLKPEHTIISCASCTTNSIAPIVKVLHEKFGIVSGMLTTVHSYTNDQRVLDLPHKDLRRARAAAVNIIPTTTGAAKAVALVVPEVKGKLDGMAIRVPTPDGSITDLTVLVEKETTVEEVNAVMKEATEGRLKGIIGYNDEPIVSSDIIGTTFSGIFDATITNVIGGKLVKVASWYDNEYGYSNRVVDTLELLLKM”, “not soluble”. On to VCSCRLVFCRRTELRVGNCLIGGVSFTYCCTRV, for which the “soluble on expression in E. coli” value is reported as “soluble”.

On to “MDEKIAPHLEELTRALGDLEKTGIRAEFYKLLAFRVSPEVAKETILRKFGGKRKILKVKDLSASLKNFEITGRILDMGEKALRPQEGVQDGPSKLYTGILADETGSVMFSSWKELPGSIGDVINIKNAYTRLWQNRIRLSIGEQSLVSGVSDSSLPGLSELSKTPLKKLIEIGSADFSVSTTACVLQLSHREVPVRGKQSKVISGVLADETARLPFTAWVELPGIDIGSIIRIEGAQIRMFRGMPSINFISSTRISPVPAEEAEKLAFTFESSSKDPSPIKIEEIASRDSMFDVVTAGNIVSVRPGSGIISRCPECSRVIQKSNCRVHGRVEGIRDMRIKAVLDDGTGAMSVMFPRELAEIIYGKTLEEAEQLMFSDISKDAVYEDLRRFLTGRYLAVRGNSSNGEYGASFVAENAWVPEDDLAVRVVELLRRLGPDEGEQSSEVSREGISFALEHHHHHH”, for which the “soluble on expression in E. coli” value is on record as “soluble”. Consider “MAKWVYKFEEGNASMRNLLGGKGCNLAEMTILGMPIPQGFTVTTEACTEYYNSGKQITQEIQDQIFEAITWLEELNGKKFGDTEDPLLVSVRSGARASMPGMMDTILNLGLNDVAVEGFAKKTGNPRFAYDSYRRFIQMYSDVVMEVPKSHFEKIIDAMKEEKGVHFDTDLTADDLKELAEKFKAVYKEAMNGEEFPQEPKDQLMGAVKAVFRSWDNPEAIVYRRMNDIPGDWGTAVNVQTMVFGNKGETSGTGVAFTRNPDTGEKGIYGRYLINAQGEDVVAGVRTPQPITQLENDMPDCYKQFMDLAMKLEKHFRDMQDMEFTIEEGKLYFLQTRNGKRTAPAALQIACDLVDEGMITEEEAVVRIEAKSLDQLLHPTFNPAALKAGEVIGSALPASPGAAAGKVYFTADEAKAAHEKGERVILVRLETSPEDIEGMHAAEGILTVRGGMTSHAAVVARGMGTCCVSGCGEIKINEEAKTFELGGHTFAEGDYISLDGSTGKIYKGDIETQEASVSGSFERIMVWADKFRTLKVRTNADTPEDTLNAVKLGAEGIGLCRTEHMFFEADRIMKIRKMILSDSVEAREEALNELIPFQKGDFKAMYKALEGRPMTVRYLDPPLHEFVPHTEEEQAELAKNMGLTLAEVKAKVDELHEFNPMMGHRGCRLAVTYPEIAKMQTRAVMEAAIEVKEETGIDIVPEIMIPLVGEKKELKFVKDVVVEVAEQVKKEKGSDMQYHIGTMIEIPRAALTADAIAEEAEFFSFGTNDLTQMTFGFSRDDAGKFLDSYYKAKIYESDPFARLDQTGVGQLVEMAVKKGRQTRPGLKCGICGEHGGDPSSVEFCHKVGLNYVSCSPFRVPIARLAAAQAALNNK”, for which the “soluble on expression in E. coli” value is recorded as “soluble”.

For “MTPDWFAVVDATWPAADSRTDGTLTLREGRGGGKRVSAASASGAVSEPQIEAAEAAMRQMGQPPLFQLRPGDEGLDAALAGRGYSIVDPVNIYACPVSQLTDLPMPRVTVFALWEPLAIMRELWAEGGIGPGRLAVMDRVKGPKTGLLMRHQDKPGGVAFVAIHDGVAMLHALEIPPHQRRKGLGKWAMRGAAFWALDNGAHTLSVICTKANEGANALYRSLGMQLVGEYHYRLLQEERQTA”, the “soluble on expression in E. coli” value is given as “not soluble”.
